Positions count from the first letter of the chain named. In names and notes the source's numbering stands.
System: engineered chimeric receptor SEQ ID NO: 33 and its mutants (human α7-nAChR ligand binding domain / human GlyRα1 ion pore domain) in Lenti-X 293T cells
Assay: YFP fluorescence quenching anion reporter plate reader assay (percent quench, EC50)
Format: cell-based
Conditions: for YFP fluorescence quenching using CNL001 (percent quench): receptor named in row; for YFP fluorescence quenching using Facinicline, 30 nM fac: ligand Facinicline 30 nM; for YFP fluorescence quenching using Facinicline, 100 nM fac: ligand Facinicline 100 nM; for YFP fluorescence quenching using Facinicline, 300 nM fac: ligand Facinicline 300 nM; for YFP fluorescence quenching using Facinicline, 10 uM fac: ligand Facinicline 10 uM; for YFP fluorescence quenching using Facinicline, 30 uM fac: ligand Facinicline 30 uM; for YFP fluorescence quenching using TC-6987, 1 uM tc6987: ligand TC-6987 1 uM; for YFP fluorescence quenching using TC-6987, 10 uM tc6987: ligand TC-6987 10 uM; for YFP fluorescence quenching using TC-6987, 500 uM tc6987: ligand TC-6987 500 uM
Summary of the method: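 Lenti-X 293T cells co-expressing an anion-quenchable YFP were transiently transfected with receptor DNA, then ligand was added in NaI-substituted buffer (pH 7.2) after 30 min at 37 °C. Fluorescence was read about 2 min; percent quench = mean of last 10 s over 15 s pre-ligand baseline.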

[1] = 1 nM CNL001, first column so headed
[2] = 1 nM CNL001, second column so headed
[3] = 1 nM brd (TC-5619/Bradanicline)
[4] = 3 nM brd (TC-5619/Bradanicline)
[5] = 10 nM CNL001, first column so headed
[6] = 10 nM CNL001, second column so headed
[7] = 10 nM brd (TC-5619/Bradanicline)
[8] = 30 nM brd (TC-5619/Bradanicline)
[9] = 50 nM CNL001, first column so headed
[10] = 50 nM CNL001, second column so headed
[11] = 100 nM CNL001, first column so headed
[12] = 100 nM CNL001, second column so headed
[13] = 100 nM brd (TC-5619/Bradanicline)
[14] = 300 nM brd (TC-5619/Bradanicline)
[15] = 1 uM CNL001, first column so headed
[16] = 1 uM CNL001, second column so headed
[17] = 1 uM brd (TC-5619/Bradanicline)

B1: CODA805: engineered receptor: Y115D, S170T in SEQ ID NO: 33 (protein)
chain: MRCSPGGVWLALAASLLHVSLQGEFQRKLYKELVKNYNPLERPVANDSQPLTVYFSLSLLQIMDVDEKNQVLTTNIWLQMSWTDHYLQWNVSEYPGVKTVRFPDGQIWKPDILLDNSADERFDATFHTNVLVNSSGHCQYLPPGIFKSSCPMDLKNFPMDVQTCKLKFGTWSYGGWSLDLQMQEADISGYIPNGEWDLVGIPGKRSERFYECCKEPYPDVTFTVTMRRRMGYYLIQMYIPSLLIVILSWISFWINMDAAPARVGLGITTVLTMTTQSSGSRASLPKVSYVKAIDIWMAVCLLFVFSALLEYAAVNFVSRQHKELLRFRRKRRHHKSPMLNLFQEDEAGEGRFNFSAYGMGPACLQAKDGISVKGANNSNTTNPPPAPSKSPEEMRKLFIQRAKKIDKISRIGFPMAFLIFNMFYWIIYKIVRREDVHNQ
modifications: synthetic sequence of chimeric LGIC
With B1 the “YFP fluorescence quenching using CNL001 (percent quench)” value [1] was −10.729%, the “YFP fluorescence quenching using CNL001 (percent quench)” value [2] was −15.278% and the “YFP fluorescence quenching using TC-5619/Bradanicline (percent quench)” value [3] was −9.78%. For the same molecule, the “YFP fluorescence quenching using TC-5619/Bradanicline (percent quench)” value [4] was −12.06%, the “YFP fluorescence quenching using CNL001 (percent quench)” value [5] was −20.403% and the “YFP fluorescence quenching using CNL001 (percent quench)” value [6] was −14.905%. For the same molecule, the “YFP fluorescence quenching using TC-5619/Bradanicline (percent quench)” value [7] was −9.02%, the “YFP fluorescence quenching using TC-5619/Bradanicline (percent quench)” value [8] was −16.3% and the “YFP fluorescence quenching using CNL001 (percent quench)” value [9] was −14.303%. For the same molecule, the “YFP fluorescence quenching using CNL001 (percent quench)” value [10] was −15.741%, the “YFP fluorescence quenching using ABT-126 (percent quench)” value (50 nM abt (ABT-126)) was −11.83% and the “YFP fluorescence quenching using CNL001 (percent quench)” value [11] was −12.637%. The “YFP fluorescence quenching using CNL001 (percent quench)” value [12] was −10.606%, the “YFP fluorescence quenching (percent quench)” value (100 nM CNL002) was −18.17% and the “YFP fluorescence quenching using ABT-126 (percent quench)” value (100 nM abt (ABT-126)) was −11.5%. The “YFP fluorescence quenching using AZD-0328 (percent quench)” value (100 nM azd0328) was −0.71%, the “YFP fluorescence quenching using TC-5619/Bradanicline (percent quench)” value [13] was −7.44% and the “YFP fluorescence quenching using ABT-126 (percent quench)” value (300 nM abt (ABT-126)) was −8.01%. The “YFP fluorescence quenching using AZD-0328 (percent quench)” value (300 nM azd0328) was −1.73%, the “YFP fluorescence quenching using TC-5619/Bradanicline (percent quench)” value [14] was −10.93% and the “YFP fluorescence quenching using CNL001 (percent quench)” value [15] was −13.535%. The “YFP fluorescence quenching using CNL001 (percent quench)” value [16] was −11.335%, the “YFP fluorescence quenching (percent quench)” value (1 uM CNL002) was −15.2% and the “YFP fluorescence quenching using ABT-126 (percent quench)” value (1 uM abt (ABT-126)) was −9.34%. For the same molecule, the “YFP fluorescence quenching using TC-5619/Bradanicline (percent quench)” value [17] was −4.55%, the “YFP fluorescence quenching (percent quench)” value (10 uM ach (acetylcholine)) was −0.46% and the “YFP fluorescence quenching (percent quench)” value (30 uM CNL002) was −14%. The “YFP fluorescence quenching using AZD-0328 (percent quench)” value (30 uM azd0328) was 47.39%, the “YFP fluorescence quenching (percent quench)” value (100 uM ach (acetylcholine)) was −4.93% and the “YFP fluorescence quenching (percent quench)” value (1 mM ach (acetylcholine)) was −11.18%. The “YFP fluorescence quenching (percent quench)” value (3 mM ach (acetylcholine)) was −3.53%, the “YFP fluorescence quenching using Facinicline, 30 nM fac” value was 38.08 and the “YFP fluorescence quenching using Facinicline, 100 nM fac” value was −14.37. For the same molecule, the “YFP fluorescence quenching using Facinicline, 300 nM fac” value was 19.41, the “YFP fluorescence quenching using Facinicline, 10 uM fac” value was 67.33 and the “YFP fluorescence quenching using Facinicline, 30 uM fac” value was 79.67. The “YFP fluorescence quenching using TC-6987, 1 uM tc6987” value was 31.9, the “YFP fluorescence quenching using TC-6987, 10 uM tc6987” value was 25.54 and the “YFP fluorescence quenching using TC-6987, 500 uM tc6987” value was 21.13.

B2: CODA807: engineered receptor: Y115D, L131E in SEQ ID NO: 33 (protein)
chain: B1 chain with L131E, T170S
modifications: synthetic sequence of chimeric LGIC
In the case of B2, the “YFP fluorescence quenching using CNL001 (percent quench)” value [1] is reported as 0.885%, the “YFP fluorescence quenching using CNL001 (percent quench)” value [2] is reported as −1.707% and the “YFP fluorescence quenching using TC-5619/Bradanicline (percent quench)” value [3] is reported as −1.52%. The “YFP fluorescence quenching using TC-5619/Bradanicline (percent quench)” value [4] was −5.35%, the “YFP fluorescence quenching using CNL001 (percent quench)” value [5] was −0.567% and the “YFP fluorescence quenching using CNL001 (percent quench)” value [6] was 0.043%. The “YFP fluorescence quenching using TC-5619/Bradanicline (percent quench)” value [7] was −3.49%, the “YFP fluorescence quenching using TC-6683 (percent quench)” value (30 nM TC-6683) was −26.801% and the “YFP fluorescence quenching using TC-5619/Bradanicline (percent quench)” value [8] was −2.16%. For the same molecule, the “YFP fluorescence quenching using CNL001 (percent quench)” value [9] was 5.141%, the “YFP fluorescence quenching using CNL001 (percent quench)” value [10] was 9.409% and the “YFP fluorescence quenching using ABT-126 (percent quench)” value (50 nM abt (ABT-126)) was −1.68%. For the same molecule, the “YFP fluorescence quenching using CNL001 (percent quench)” value [11] was 9.796%, the “YFP fluorescence quenching using CNL001 (percent quench)” value [12] was 11.009% and the “YFP fluorescence quenching (percent quench)” value (100 nM CNL002) was −5.71%. For the same molecule, the “YFP fluorescence quenching using ABT-126 (percent quench)” value (100 nM abt (ABT-126)) was −2.25%, the “YFP fluorescence quenching using AZD-0328 (percent quench)” value (100 nM azd0328) was 24.49% and the “YFP fluorescence quenching using TC-5619/Bradanicline (percent quench)” value [13] was 4.18%. The “YFP fluorescence quenching using TC-6683 (percent quench)” value (300 nM TC-6683) was −25.363%, the “YFP fluorescence quenching using ABT-126 (percent quench)” value (300 nM abt (ABT-126)) was −2.37% and the “YFP fluorescence quenching using AZD-0328 (percent quench)” value (300 nM azd0328) was 45.34%. The “YFP fluorescence quenching using TC-5619/Bradanicline (percent quench)” value [14] was 70.2%, the “YFP fluorescence quenching using CNL001 (percent quench)” value [15] was 27.914% and the “YFP fluorescence quenching using CNL001 (percent quench)” value [16] was 29.109%. For the same molecule, the “YFP fluorescence quenching (percent quench)” value (1 uM CNL002) was 13.03%, the “YFP fluorescence quenching using ABT-126 (percent quench)” value (1 uM abt (ABT-126)) was 3.68% and the “YFP fluorescence quenching using TC-5619/Bradanicline (percent quench)” value [17] was 43.11%. For the same molecule, the “YFP fluorescence quenching using TC-6683 (percent quench)” value (3 uM TC-6683) was −23.651%, the “YFP fluorescence quenching (percent quench)” value (10 uM ach (acetylcholine)) was 15.45% and the “YFP fluorescence quenching (percent quench)” value (30 uM CNL002) was 25.2%. For the same molecule, the “YFP fluorescence quenching using TC-6683 (percent quench)” value (30 uM TC-6683) was −26.235%, the “YFP fluorescence quenching using AZD-0328 (percent quench)” value (30 uM azd0328) was 71.21% and the “YFP fluorescence quenching using TC-6683 (percent quench)” value (100 uM TC-6683) was −24.182%. For the same molecule, the “YFP fluorescence quenching (percent quench)” value (100 uM ach (acetylcholine)) was 13.77%, the “YFP fluorescence quenching (percent quench)” value (1 mM ach (acetylcholine)) was 27.42% and the “YFP fluorescence quenching (percent quench)” value (3 mM ach (acetylcholine)) was 53.62%. The “YFP fluorescence quenching using Facinicline, 30 nM fac” value was 45.76, the “YFP fluorescence quenching using Facinicline, 100 nM fac” value was 63.92 and the “YFP fluorescence quenching using Facinicline, 300 nM fac” value was 79.43. The “YFP fluorescence quenching using Facinicline, 10 uM fac” value was 80.1, the “YFP fluorescence quenching using Facinicline, 30 uM fac” value was 84.91 and the “YFP fluorescence quenching using TC-6987, 1 uM tc6987” value was 36.07. The “YFP fluorescence quenching using TC-6987, 10 uM tc6987” value was 31.35 and the “YFP fluorescence quenching using TC-6987, 500 uM tc6987” value was 28.18.

Source: patent publication US20250152742A1, “COMPOSITIONS AND METHODS FOR NEUROLOGICAL DISEASES” (Trames Bio, Inc., priority 2022, published 2025)
